In patent publication US6613506B1, “Compositions and methods for inhibiting human immunodeficiency virus infection by down-regulating human cellular genes” (Subsidiary No. 3, Inc., priority 2000, dated 2003):

What follows are molecules tested on HIV-1IIIB (assay: Selection of GSEs from HeLa cell library using productive infection of CEM-ss cells).
Assay type: cell-based
Procedure: Additionally, a normalized RFE library made from HeLa cells was transferred into CEM-ss cells and the neo resistant population was infected with TCID50 of 3000/10^6 cells of HIV-1IIIB. This RFE library was represented by 50×10^6 independent recombinant clones. Four and seven days after infection, a purified anti-CD4 monoclonal antibody, L77 (available from Becton Dickinson), was added at 5 Φg/mL to prevent syncytia formation. Syncytia formation is thought to be prevented by blocking the interaction between gp120 expressed on the surface of an infected cell and CD4 on the surface of an uninfected cell. […] At 10-12 days after infection, CD4^+, p24^− cell population representing uninfected cells were sorted. Genomic DNA from the CD4^+, p24^− cells was purified and used for PCR amplification of inserts with the vector-derived primers. The amplified mixture was digested with EcoRI and BamHI and cloned back into the retroviral vector. The selection was repeated for additional rounds.
The selection of GSEs from HeLa cell library using productive infection of CEM-ss cells isolated […] additional nucleic acid molecules which have substantial sequence identity with other cellular genes.
The selection of GSEs from a HeLa cell library using productive infection of CEM-ss cells isolated 21 additional nucleic acid molecules which have substantial sequence identity with other cellular genes. […] The complement of SEQ ID NO:25 is represented by SEQ ID NO:26. […] The complement of SEQ ID NO:27 is represented by SEQ ID NO:28. […] The complement of SEQ ID NO:29 is represented by SEQ ID NO:30. […] The complement of SEQ ID NO:31 is represented by SEQ ID NO:32. […] The complement of SEQ ID NO:33 is represented by SEQ ID NO:34. […] The complement of SEQ ID NO:35 is represented by SEQ ID NO:36. […] The complement of SEQ ID NO:37 is represented by SEQ ID NO:38. […] The complement of SEQ ID NO:39 is represented by SEQ ID NO:40. […] The complement of SEQ ID NO:41 is represented by SEQ ID NO:42. […] The complement of SEQ ID NO:43 is represented by SEQ ID NO:44. […] The complement of SEQ ID NO:45 is represented by SEQ ID NO:46. […] The complement of SEQ ID NO:47 is represented by SEQ ID NO:48. […] The complement of SEQ ID NO:49 is represented by SEQ ID NO:50. […] The complement of SEQ ID NO:51 is represented by SEQ ID NO:52. […] The complement of SEQ ID NO:53 is represented by SEQ ID NO:54. […] The complement of SEQ ID NO:55 is represented by SEQ ID NO:56. […] The complement of SEQ ID NO:57 is represented by SEQ ID NO:58. […] The complement of SEQ ID NO:59 is represented by SEQ ID NO:60. […] The complement of SEQ ID NO:61 is represented by SEQ ID NO:62. […] The complement of SEQ ID NO:77 is represented by SEQ ID NO:78. […] The complement of SEQ ID NO:87 is represented by SEQ ID NO:88. […] The complement of SEQ ID NO:99 is represented by SEQ ID NO:100. […] The complement of SEQ ID NO:101 is represented by SEQ ID NO:102. […] The complement of SEQ ID NO:103 is represented by SEQ ID NO:104. […] The complement of SEQ ID NO:105 is represented by SEQ ID NO: 106. […] The complement of SEQ ID NO:107 is represented by SEQ ID NO:108. […] The complement of SEQ ID NO:109 is represented by SEQ ID NO:110. […] The complement of SEQ ID NO:111 is represented by SEQ ID NO:112. […] The complement of SEQ ID NO:113 is represented by SEQ ID NO:114. […] The complement of SEQ ID NO:115 is represented by SEQ ID NO:116. […] The complement of SEQ ID NO:117 is represented by SEQ ID NO:118.

Molecule | HIV-suppressive activity of the GSE and active orientation
CF-527: GSE, SEQ ID NO:41; eukaryotic release factor 1 gene; acts through a peptide (nucleic acid, listed as Homo sapiens, chemistry not fully specified, eukaryotic release factor 1 gene; acts through a peptide) DNA: CGTTTAAGAATGGAAAAGCGACATAACTATGTTCGGAAAGTAGCAGAGACTGCTGTGCAGCTGTTTATTTCTGGGGACAAAGTGAATGTGGCTGGTCTAGTTTTAGCTGGATCCGCTC | a peptide from which interferes with HIV replication

The molecules below were run on HIV (assay: Selection of GSEs from PBMC library using CEM-ss cells).
Assay type: cell-based
Procedure: A cell-derived random fragment library (RFL) was constructed using cDNA from peripheral blood mononuclear cells (PBMC). Four buffy coats were obtained from four healthy blood donors and PBMCs were purified by Ficoll gradient centrifugation followed by stimulation with PHA (1 μg/mL). Cells were removed at 5, 10, and 24 hours after the addition of PHA and total RNA was isolated by Trizol extraction. All time points from all donors were then pooled. Polyadenylated mRNA was purified from the total RNA by passages through an oligo-dT column. cDNA was synthesized from the polyadenylated RNA with random primers using the Gibco Superscript Choice system for cDNA Synthesis (Gibco BRL, Rockville, Md.). The cDNA was normalized using the PCR-Select cDNA Subtraction kit (Clontech, Palo Alto, Calif.) based on the suppression subtractive hybridization methods of Diatchenko et al. (1996, Proc. Natl. Acad. Sci. USA 93, 6025-6030, 1996). The primers used for the normalization were: […]
The normalized random fragments were digested with XhoI and Sse83871, purified on quick spin columns (available from Qiagen, Valencia, Calif.) and ligated into the SseI/XhoI site of a bicistronic retroviral vector, EMCVNgfrMPBIN. This vector was based on LXSNgfr as described in Dunn el al. (1999, Gene Therapy 6:130-137). Modifications included substitution of the Moloney murine leukemia virus LTR with the hybrid LTR described by Baum et al., 1995, (J. Virol. 69:7541-7547) and replacement of the SV40 promoter with encephalomyocarditis virus (EMCV) internal ribosomal entry site isolated from the plasmid, pCITE (available from Amersham, Arlington Heights, Ill.). The ligation mix was then transformed into competent cells. The total plasmid was purified from approximately 50 million clones.
The PBMC library was screened using the methods described above in Section 1F. A total of 14 GSEs were isolated using CEM-ss cells. […] The complement of SEQ ID NO:69 is represented by SEQ ID NO:70. CF-675 (SEQ ID NO:71) is another GSE that has substantial sequence identity with a gene encoding human translationally controlled tumor protein 1 (GenBank Accession No. HUMCH13C4A). The complement of SEQ ID NO:71 is represented by SEQ ID NO:72. CF-679 (SEQ ID NO:83) is another GSE that has substantial sequence identity with a gene encoding human translationally controlled tumor protein 1 (GenBank Accession No. HUMCH13C4A). The complement of SEQ ID NO:83 is represented by SEQ ID NO:84. […] The complement of SEQ ID NO:75 is represented by SEQ ID NO:76. […] The complement of SEQ ID NO:79 is represented by SEQ ID NO:80. […] The complement of SEQ ID NO:67 is represented by SEQ ID NO:68. […] The complement of SEQ ID NO:63 is represented by SEQ ID NO:64. CF-675 (SEQ ID NO:65) is another GSE that has substantial sequence identity with a gene encoding alpha enolase protein. The complement of SEQ ID NO:65 is represented by SEQ ID NO:66. […] The complement of SEQ ID NO:73 is represented by SEQ ID NO:74. […] The complement of SEQ ID NO:81 is represented by SEQ ID NO:82. […] The complement of SEQ ID NO:85 is represented by SEQ ID NO:86. […] The complement of SEQ ID NO:89 is represented by SEQ ID NO:90. […] The complement of SEQ ID NO:91 is represented by SEQ ID NO:92. […] The complement of SEQ ID NO:93 is represented by SEQ ID NO:94. Another member of the cluster is CF-686 (SEQ ID NO:95), also having substantial sequence identity with a gene encoding cell surface heparin binding protein (Liu et al., ibid.). The complement of SEQ ID NO:95 is represented by SEQ ID NO:96.

Molecule | HIV-suppressive activity of the GSE and active orientation
CF-693: GSE, SEQ ID NO:75, sense; NEF interacting protein gene (sense GATTCTCAGCTGGTAGCTGGTGTTGCATTCAAGAAGACTTTCTCTTACGCTGGGTT; listed as Homo sapiens) | interferes with HIV replication in a sense orientation
CF-685: GSE, SEQ ID NO:93, antisense; cell surface heparin binding protein gene (nucleic acid, listed as Homo sapiens) antisense: TCGGGAGCCGCGGCTTATGGTGCAGACATGGCCAAGTCCAAGAACCACACCACACACAACCAGTCCCGAAAATGGCACAGAAATGGTATCAAGAAACCCCGAT | interfere with HIV replication as an antisense molecule
CF-676: GSE, SEQ ID NO:63, antisense; alpha enolase gene (nucleic acid, listed as Homo sapiens) antisense: GTACAACCAGCTCCTCAGAATTGAAGAGGAGCTGGGCAGCAAGGCTAAGTTTGCCGGCAGGAACTTCAGAAACCCCTTGGCCAAGTAAGCTGTGGGCAGGCAAGCCCTTCGGTCACCTGTTGGCT | interferes with HIV replication as an antisense molecule
CF-653: GSE, SEQ ID NO:67, antisense; MIP-1 alpha gene (nucleic acid, listed as Homo sapiens) antisense: CCCACATTCCGTCACCTGCTCAGAATCATGCAGGTCTCCACTGCTGCCCTTGCTGTCCTCCTCTGCACCATGGCTCTCTGCAACCAGTTCTCTGCATCACTTGCTGCTGACACG | interferes with HIV replication as an antisense molecule
CF-660: GSE, SEQ ID NO:79, antisense; human hsp90 chaperone protein gene (nucleic acid, listed as Homo sapiens) antisense: GAGAGGGGGGATCTCATCAGGAACTGCAGCATTGGGTTCCTCTGCTGCCACTTCATCTTCATCAAT | interferes with HIV replication as an antisense molecule
CF-681: GSE, SEQ ID NO:85, antisense; FK506-binding protein A1 gene (nucleic acid, listed as Homo sapiens) antisense: TGGGGGAAGGGTGCAGCAACGATTTCTCACCAAATCACTACACAGGACAGCAAAGGGGTGAGAAGGGGCTGAGGGAGGAAAAGCCAGGAAACTGAGATCAGCAGAGGGAGCCAAGCATCAAAAAACAGGAGATGCTGAAGCTGCGATGACCAGCATCATTTTCTTAAGAGAACATTCAAGGATTTGTCATGATGGCTGGGCTTTCACTTGGTGTTAAGTCTACAAACAGCACCTTCAATTGGAACTGTCAATTAAAGTTCTTAAGATTTAGGAAGTGGTGGAGCTTGGAAAGTTATGAGATTACAAAATTTCTGAAAGTC | interferes with HIV replication as an antisense molecule
CF-674: GSE, SEQ ID NO:69, sense; human translationally controlled tumor protein 1 gene (nucleic acid, listed as Homo sapiens) sense: CTCTGTTCTTCAAGTTTCCCTTTGATTGATTTCATGTAATCTTTGATGTACTTCTTGTAGGCTTCTTTTGTGAAACTTGTTT | interferes with HIV replication in a sense orientation
CF-684: GSE, SEQ ID NO:91, sense; human tumorous imaginal disc protein gene (nucleic acid, listed as Homo sapiens) sense: AATCATTGTTTTTTCCTTTGTAAATGTTGATTCAGAAAAGGAAAGCACAGGCTAAGCAGTTGAAGGTTCCCCACCATTCAGTGAGAGCAG | interferes with HIV replication in a sense orientation
CF-673: GSE, SEQ ID NO:73, antisense; BBC-1 gene (nucleic acid, listed as Homo sapiens) antisense: TCATCACTGAGGAAGAGAAGAATTTCAAAGCCTTCGCTAGTCTCCGTATGGCCCGTGCCAACGCCCGGCTCTTCGGCACACGGGCAAAA | interferes with HIV replication as an antisense molecule
